Experimental data taken from patent publication US10245299B2, “Autoassembling peptides for the treatment of pulmonary bulla” (3-D MATRIX, LTD., priority 2014, dated 2019).

Tests used:
[1] = Gelation kinetics of pH adjusted peptides, time sweep with DMEM; assay type: physicochemical
Experimental: The effect of pH level on the properties of gelation kinetics was evaluated to identify optimized pH levels for the peptides as described herein. Fast gelation kinetics of PuraMatrix® and other peptides within body fluid may generally improve its function and response time for various clinical applications. The pH level may impart response time to begin gelation when treated with simulated body fluid including but not limited to DMEM. […] A fast response time of PuraMatrix® and other peptides within body fluid may generally improve its function and response time for various clinical applications.
(§1) Time sweep tests were performed at 1 rad/sec and at 1 Pa with 20 mm plates and 500 μm gap distance. During time sweep test of PuraMatrix® 2.5% solution, DMEM was added into the chamber surrounding the measuring plates to soak PuraMatrix® solution at 0 time point. The results are shown in FIG. 9A for PuraMatrix® 2.5% solution.
as §1, with “IEIK13 1.5%” for “PuraMatrix® 2.5%”, “IEIK13 1.5%” for “PuraMatrix®”, “point and continuously data was recorded.” for “point.”, “9B” for “9A”

[2] = tested on: pulmonary bulla; experiment: Filling of pulmonary bulla cavity through connecting bronchioles before collapse; settings: 1.0% RADA16 with 0.00585% indigo carmine
Experimental: A method for pulmonary bullae treatment using peptide hydrogel systems distinct from the method discussed in Example 19 was tested. Here, the pulmonary bullae are generally filled prior to collapse.
The pulmonary bulla cavity was filled with 1.0% RADA16 through the connecting bronchioles using an endotracheal tube inserted through the primary bronchus and into the lung. The bulla was then collapsed to remove the pocket of trapped air. 1.0% RADA16 mixed with 0.00585% indigo carmine was used here for visualization of the hydrogel spreading into the bullae cavity.

[3] = Rheology of peptides mixed with cation/anion solutions; assay type: physicochemical
Experimental: In a rheological comparison of 2.5% RADA16 and 2.5% RADA16+NaCl, KCl, and CaCl2, solutions of 0.5% RADA16 mixed with 0.005, 0.05, 0.125, 0.25, 0.5, and 1 M NaCl, KCl, and CaCl2 were prepared. The anion, chloride (Cl−), was kept the same to observe the effect of the cations, sodium (Na+), potassium (K+), and calcium (Ca2+). FIG. 21 provides a basic understanding of how varying the cations of a salt solution effects the viscoelastic properties and the stiffness of self-assembling peptides. […] This should be because Ca has […] higher ionic strength than Na and K at the same molar concentrations. Therefore, influence of salts on the peptide solution is more related to their ionic strength rather than their molar concentration, as shown in FIGS. 17-18 and Table 2a-c. In some embodiments, there is a correlation between the properties of the peptide solutions with salts based on the concentration of the salts.
Rheological measurements of stiffness of 2.5% RADA16 and 2.5% RADA16+0.25 M CaCl2 was evaluated.
Rheological measurements of reversibility of 0.5% RADA16 solution with +0.125, 0.25, and 0.5 M CaCl2 were evaluated. Solutions of 0.5% RADA16 mixed with 0.125, 0.25, and 0.5 M CaCl2 were prepared. The structure of the self-assembled peptide solution were disrupted thoroughly by application of mechanical stress through vortexing and sonication. The mixtures were placed at room temperature for 48 hours to allow self-assembly to take place. […] FIG. 23a presents raw rheological data of the peptide solution with salts and the perturbed peptide solution while FIG. 23b provides a comparison of stiffness of the control peptide solution and the perturbed peptide solution.
Rheological measurements of gelation kinetics of 0.5% RADA16+NaCl, KCl, and CaCl2 were evaluated. A solution of 0.5% RADA16 was prepared and gelation kinetics were observed by treatment with several cations (e.g. Na, […], K) and anions (e.g. Cl, CO3, PO4, SO4). It was determined how long it will take for the peptide mixtures to gel and how to control that gelation time by varying the cation/anion type and concentration. […] In vivo and in vitro qualitative experiments and the resulting observations were supportive of these conclusions.
The two gels were: (1) a combination of the self-assembling peptide with a well-known cation/anion solution, Ringer's Solution (pH 5.3), used in the medical field and (2) a combination of the self-assembling peptide with a well-known contrast agent, indigo carmine, which is a dye solution containing sulfate (anion) and sodium (cation) ions. Indigo carmine contains indigoindisulfonate sodium (C16H8N2Na2O8S2), water, and sodium citrate […] for pH adjustment. Using indigo carmine powder, a 1% solution was prepared for use in experimentation. This corresponds to 10 mg/1 ml of water. The concentration of indigo carmine solution used in experimentation was 0.00585% in water.
The rheological comparisons of these mixtures and the visualization of the gels can be observed in FIG. 24a-24c. […] The concentration of the contrast agent or cation/anion mixture and peptide hydrogel that were mixed were based on an understanding of using cations and anions as described herein. […] FIG. 24C presents a comparison of stiffness of RADA16 and RADA16 mixed with Ringer's Solution.

[4] = Rheological properties (storage moduli) of 1% peptides before and after DMEM treatment for 2 minutes; assay type: physicochemical; settings: peptides 1%, compared between peptides
Experimental: The effects of Dulbecco's modified Eagle's medium (DMEM) (pH 7.4) on the rheological properties of IEIK13, KLD12, and PuraMatrix® were evaluated on a rheometer (AR500, TA Instruments) with 40 mm plates. DMEM is generally a cell culture medium that contains 6.4 g/L of NaCl, 3.4 g/L NaHCO3 (sodium bicarbonate), minor amounts of other salts, various amino acids, and 4.5 g/L of glucose. The pH level of DMEM is generally 7.2±0.2 and the osmolality is 335±30 mOsm/Kg H2O; both measurements are close to human physiological fluids such as blood.
Peptide solutions (1%) were kept at 4° C. for at least 48 hours before testing. To perform the experiment, 1 mL of peptide solution was gently pipetted and placed on the plate of the rheometer. 2 mL of DMEM solution was gently added around the peptide solution. The peptide solution was treated with DMEM for two minutes, then the media was removed, and the plates were placed at a measuring geometry gap at around 450 μm. Measurements were performed at 37° C. after 2 min of relaxation time. Frequency tests were performed from 1 rad/s to 100 rad/s at 1 Pa of oscillation stress.
The rheological properties of the peptides (1%) were compared before and after DMEM treatment for 2 minutes, as shown in FIG. 1A. […]

[5] = with pH adjustment, PuraMatrix® 2.5%, IEIK13 1.5% solution

Substance	storage modulus response on DMEM addition [1, 5]	filling of bullae cavity through the connecting bronchioles [2]	gelation kinetics by cation/anion type ([3]; 0.5% RADA16)	reversibility after perturbation ([3]; 0.5% RADA16 with CaCl2 within the optimal salt concentration range, vortexing and sonication, 48 hours at room temperature)	stiffness with added CaCl2 ([3]; 2.5% RADA16 vs 2.5% RADA16 with CaCl2)	effect of cations on stiffness ([3]; RADA16 mixed with 0.005-1 M NaCl, KCl, and CaCl2, same molar concentrations)	mechanical properties of mixed gel ([3]; RADA16 mixed with Ringer's Solution (pH 5.3))	fold increase of storage modulus after DMEM treatment [4]	storage modulus response on DMEM addition ([1]; without pH adjustment)	mechanical properties of mixed gel ([3]; 1.5% IEIK13 mixed with 0.00585% indigo carmine)
Arg-Ala-Asp-Ala-Arg-Ala-Asp-Ala-Arg-Ala-Asp-Ala-Arg-Ala-Asp-Ala [PuraMatrix®]	immediate storage modulus increase	completely fill the bullae cavity	Chlorine showed the quickest gelation and sulfate showed the slowest gelation	remained reversible	noticeable increase in stiffness	Ca provided the best enhancement of stiffness	A stiffer gel with faster gelation kinetics that maintains reversibility	–	–	–
Ile-Glu-Ile-Lys-Ile-Glu-Ile-Lys-Ile-Glu-Ile-Lys-Ile [IEIK13]	immediate storage modulus increase	–	–	–	–	–	–	lower-fold increase of storage modulus than weaker peptide solutions	immediate storage modulus increase	maintains stiffness, reversibility, and gelation kinetics
